# Earlier results in article PMC7561547.
# pKd: −log10 of the molar value.
# Target: Her2 (Homo sapiens) (UniProt P04626)
substance,measurement,value
trastuzumab,pKd,10.00
